B1: Pistol ribozyme (parent)
chain: GGGUCGUUGUUCCAUAAUCGCGUGGAUAUGGCACGCAAGUUUCUACCGGGCACCGUAAAUGUCCGACUGGAGCCGUUCGGGCGGCUAUAAACAGACCUCAGGCCCGAAGCGUGGCGGCACCUGCCGCCGGUGGUAAAAAAGAUCGGAAGAGCACACGUCU

Variants of: B1
Assay: aptazyme ON/OFF ratio, guanine; higher = stronger switching; co-transcriptional cleavage with and without guanine

Row | Variant | aptazyme ON/OFF ratio
1 | GGGUCGAGUAAGCAUAAUCGCGUGGAUAUGGCACGCAAGUUUCUACCGGGCACCGUAAAUGUCCGACUGGAGCCGUUCGGGCGGCUAUAAACAGACCUCAGGCCCGAAGCGUGGCGGCACCUGCCGCCGGUGGUAAAAAAGAUCGGAAGAGCACACGUCU [U7A U8G G9U U10A U11A C12G] | 1.33
2 | GGGUCGAGUACACAUAAUCGCGUGGAUAUGGCACGCAAGUUUCUACCGGGCACCGUAAAUGUCCGACUGGAGCCGUUCGGGCGGCUAUAAACAGACCUCAGGCCCGAAGCGUGGCGGCACCUGCCGCCGGUGGUAAAAAAGAUCGGAAGAGCACACGUCU [U7A U8G G9U U10A U11C C12A] | 1.39
3 | GGGUCGAGUACGCAUAAUCGCGUGGAUAUGGCACGCAAGUUUCUACCGGGCACCGUAAAUGUCCGACUGGAGCCGUUCGGGCGGCUAUAAACAGACCUCAGGCCCGAAGCGUGGCGGCACCUGCCGCCGGUGGUAAAAAAGAUCGGAAGAGCACACGUCU [U7A U8G G9U U10A U11C C12G] | 1.43
4 | GGGUCGAGUAAUGAUAAUCGCGUGGAUAUGGCACGCAAGUUUCUACCGGGCACCGUAAAUGUCCGACUGGAGCCGUUCGGGCGGCUAUAAACAGACCUCAGGCCCGAAGCGUGGCGGCACCUGCCGCCGGUGGUAAAAAAGAUCGGAAGAGCACACGUCU [U7A U8G G9U U10A U11A C12U C13G] | 1.24
5 | GGGUCGAGUAAUUAUAAUCGCGUGGAUAUGGCACGCAAGUUUCUACCGGGCACCGUAAAUGUCCGACUGGAGCCGUUCGGGCGGCUAUAAACAGACCUCAGGCCCGAAGCGUGGCGGCACCUGCCGCCGGUGGUAAAAAAGAUCGGAAGAGCACACGUCU [U7A U8G G9U U10A U11A C12U C13U] | 1.2
6 | GGGUCGAGUAAUAAUAAUCGCGUGGAUAUGGCACGCAAGUUUCUACCGGGCACCGUAAAUGUCCGACUGGAGCCGUUCGGGCGGCUAUAAACAGACCUCAGGCCCGAAGCGUGGCGGCACCUGCCGCCGGUGGUAAAAAAGAUCGGAAGAGCACACGUCU [U7A U8G G9U U10A U11A C12U C13A] | 1.26
7 | GGGUCGAGUAUCAAUAAUCGCGUGGAUAUGGCACGCAAGUUUCUACCGGGCACCGUAAAUGUCCGACUGGAGCCGUUCGGGCGGCUAUAAACAGACCUCAGGCCCGAAGCGUGGCGGCACCUGCCGCCGGUGGUAAAAAAGAUCGGAAGAGCACACGUCU [U7A U8G G9U U10A C13A] | 1.36
8 | GGGUCGAGUAUCUAUAAUCGCGUGGAUAUGGCACGCAAGUUUCUACCGGGCACCGUAAAUGUCCGACUGGAGCCGUUCGGGCGGCUAUAAACAGACCUCAGGCCCGAAGCGUGGCGGCACCUGCCGCCGGUGGUAAAAAAGAUCGGAAGAGCACACGUCU [U7A U8G G9U U10A C13U] | 1.23
9 | GGGUCGAGUAUCGAUAAUCGCGUGGAUAUGGCACGCAAGUUUCUACCGGGCACCGUAAAUGUCCGACUGGAGCCGUUCGGGCGGCUAUAAACAGACCUCAGGCCCGAAGCGUGGCGGCACCUGCCGCCGGUGGUAAAAAAGAUCGGAAGAGCACACGUCU [U7A U8G G9U U10A C13G] | 1.12
10 | GGGUCGAGUACGAAUAAUCGCGUGGAUAUGGCACGCAAGUUUCUACCGGGCACCGUAAAUGUCCGACUGGAGCCGUUCGGGCGGCUAUAAACAGACCUCAGGCCCGAAGCGUGGCGGCACCUGCCGCCGGUGGUAAAAAAGAUCGGAAGAGCACACGUCU [U7A U8G G9U U10A U11C C12G C13A] | 1.14
11 | GGGUCGAGUAACAAUAAUCGCGUGGAUAUGGCACGCAAGUUUCUACCGGGCACCGUAAAUGUCCGACUGGAGCCGUUCGGGCGGCUAUAAACAGACCUCAGGCCCGAAGCGUGGCGGCACCUGCCGCCGGUGGUAAAAAAGAUCGGAAGAGCACACGUCU [U7A U8G G9U U10A U11A C13A] | 1.48
12 | GGGUCGAGUAACUAUAAUCGCGUGGAUAUGGCACGCAAGUUUCUACCGGGCACCGUAAAUGUCCGACUGGAGCCGUUCGGGCGGCUAUAAACAGACCUCAGGCCCGAAGCGUGGCGGCACCUGCCGCCGGUGGUAAAAAAGAUCGGAAGAGCACACGUCU [U7A U8G G9U U10A U11A C13U] | 1.39
13 | GGGUCGAGUAACGAUAAUCGCGUGGAUAUGGCACGCAAGUUUCUACCGGGCACCGUAAAUGUCCGACUGGAGCCGUUCGGGCGGCUAUAAACAGACCUCAGGCCCGAAGCGUGGCGGCACCUGCCGCCGGUGGUAAAAAAGAUCGGAAGAGCACACGUCU [U7A U8G G9U U10A U11A C13G] | 1.15
14 | GGGUCGAGUAUGCAUAAUCGCGUGGAUAUGGCACGCAAGUUUCUACCGGGCACCGUAAAUGUCCGACUGGAGCCGUUCGGGCGGCUAUAAACAGACCUCAGGCCCGAAGCGUGGCGGCACCUGCCGCCGGUGGUAAAAAAGAUCGGAAGAGCACACGUCU [U7A U8G G9U U10A C12G] | 1.45
15 | GGGUCGAGUAUUCAUAAUCGCGUGGAUAUGGCACGCAAGUUUCUACCGGGCACCGUAAAUGUCCGACUGGAGCCGUUCGGGCGGCUAUAAACAGACCUCAGGCCCGAAGCGUGGCGGCACCUGCCGCCGGUGGUAAAAAAGAUCGGAAGAGCACACGUCU [U7A U8G G9U U10A C12U] | 1.4
16 | GGGUCGAGUAAGUAUAAUCGCGUGGAUAUGGCACGCAAGUUUCUACCGGGCACCGUAAAUGUCCGACUGGAGCCGUUCGGGCGGCUAUAAACAGACCUCAGGCCCGAAGCGUGGCGGCACCUGCCGCCGGUGGUAAAAAAGAUCGGAAGAGCACACGUCU [U7A U8G G9U U10A U11A C12G C13U] | 1.22
17 | GGGUCGAGUAAGAAUAAUCGCGUGGAUAUGGCACGCAAGUUUCUACCGGGCACCGUAAAUGUCCGACUGGAGCCGUUCGGGCGGCUAUAAACAGACCUCAGGCCCGAAGCGUGGCGGCACCUGCCGCCGGUGGUAAAAAAGAUCGGAAGAGCACACGUCU [U7A U8G G9U U10A U11A C12G C13A] | 1.36
18 | GGGUCGAGUAAGGAUAAUCGCGUGGAUAUGGCACGCAAGUUUCUACCGGGCACCGUAAAUGUCCGACUGGAGCCGUUCGGGCGGCUAUAAACAGACCUCAGGCCCGAAGCGUGGCGGCACCUGCCGCCGGUGGUAAAAAAGAUCGGAAGAGCACACGUCU [U7A U8G G9U U10A U11A C12G C13G] | 1.28

Source: the RNAGym collection of RNA variant scans (doi:10.1021/acssynbio.7b00057)
